# According to paper PMC4420250:
# Biological target: autoinducing peptide 1 (AIP1), active (cyclized), N-terminally biotinylated (Staphylococcus aureus)
row,Substance,IC50 of inhibition of agr::P3-yfp promoter activation in S. aureus AH1677 (agr-I) cultured with 50 nM exogenous AIP1 and increasing concentrations of lipoprotein [nM]
1,apoB48-containing lipoprotein particles (apoB48-LP) from serum of ApoE-/- mice (natural protein),3.5
2,human LDL (apoB100) (natural protein),2.3
